From article PMC7067740, “NDRG2 Protects the Brain from Excitotoxicity by Facilitating Interstitial Glutamate Uptake” (Translational Stroke Research, 2019)

Target: endogenous Na+/K+-ATPase β1 (mouse (endogenous in cultured mouse …, UniProt P14094 1-304))
Assay: cell-based or functional assay

B1: endogenous NDRG2 (N-myc downstream regulated gene 2) (natural protein, UniProt Q9QYG0 1-371, looked up)
chain: MAELQEVQITEEKPLLPGQTPETAKEAELAARILLDQGQTHSVETPYGSVTFTVYGTPKPKRPAIFTYHDVGLNYKSCFQPLFRFGDMQEIIQNFVRVHVDAPGMEEGAPVFPLGYQYPSLDQLADMIPCILQYLNFSTIIGVGVGAGAYILSRYALNHPDTVEGLVLINIDPNAKGWMDWAAHKLTGLTSSIPDMILGHLFSQEELSGNSELIQKYRGIIQHAPNLENIELYWNSYNNRRDLNFERGGETTLKCPVMLVVGDQAPHEDAVVECNSKLDPTQTSFLKMADSGGQPQLTQPGKLTEAFKYFLQGMGYMASSCMTRLSRSRTASLTSAASIDGSRSRSRTLSQSSESGTLPSGPPGHTMEVSC
half-life of endogenous Na+/K+-ATPase β1 in astrocytes after TAT-Ctrl treatment, with 100 μM emetine, immunoblot: 1.83 h | half-life of endogenous Na+/K+-ATPase β1 in astrocytes after TAT-β1(244–263) treatment, with 100 μM emetine, immunoblot: 1.08 h
